Assay results published in patent US6951917.

Molecular target: HLA-DR on 1088-EBV cells (autologous EBV-B cells of patient 1088) (human)
Assay: cell-based or functional assay

B1: monoclonal antibody L243 (anti-HLA-DR; IgG2a) (antibody, from another filing, V domains shown)
VH: QIQLVQSGPELKKPGETVKISCKASGFTFTNYGMNWVKQAPGKGLKWMGWINTYTREPTYADDFKGRFAFSLETSASTAYLQINNLKNEDTAKYFCARDITAVVPTGFDYWGQGTTLTVSS
VL: DIQMTQSPASLSVSVGETVTITCRASENIYSNLAWYRQKQGKSPQLLVFAASNLADGVPSRFSGSGSGTQYSLKINSLQSEDFGDYYCQHFWTTPWAFGGGTNLEIKR
- inhibition of GM-CSF secretion by CD4+ TIL 1088 stimulated with 1088-EBV pulsed with autologous melanoma lysate (mAb 23 ug/ml): 96%
